First the molecules themselves.
B1: OR4K15 (parent)
chain: GUUAACGGUCAUAGGCCAUGGAAACUAGGAGCACCAUUUCGCUGCCAGUGAAGAAAUGAACAAAGAAAAUCUGGGCCAGGCAGGCAUCAAAAGAAAUAGUCUUGCGCUCAACCAGAAAGUCUGUAAUCAUUUUAAGGGUA

Variants of B1 are the subject of this data set. Nature of the data set: self-cleavage, relative activity (ratio to wild type); higher = more cleavage; in vitro, sequencing; the parent is a self-cleaving ribozyme.
On to A64G G138A, for which the self-cleavage was determined as 1.9.
In the case of A62G U133A it was 1.51.
In the case of A62G U133C it was 1.14; in that of A63G A78G, 0.31; in that of A63G A78U, 0.22.
The same measure for A63U U100A: 0.96.
Turning to A62U A125G, the self-cleavage amounted to 0.71.
Regarding A62C A118G, the self-cleavage was 1.46.
As to A62G G106U, the self-cleavage worked out at 0.01.
As for A60U G138A, the self-cleavage was 1.37.
In the case of A63G U100C it was 2.31; in that of A60U A110G, 0.24; in that of A64G A92G, 1.48.
With A62G G138A, the self-cleavage turned out to be 1.04.
For the variant A62C U122C, the self-cleavage stood at 1.33.
On to A60U A90G, for which the self-cleavage stood at 1.34.
The same measure for A63G U72G: 0.29; for A64G U131C: 1.2; for A62U A116G: 1.13.
For A62G A92G, the self-cleavage amounted to 1.22.
The same measure for A62U G83A: 1.98.
In the case of A62C A125G, the self-cleavage came out at 0.58.
On to A64G U133G, for which the self-cleavage was 1.05.
In the case of A64G U133C it was 1.5; in that of A64G U133A, 1.52.
Regarding A62G U102C, the self-cleavage was found to be 1.19.
In the case of A62G A96U it was 1.26.
For A63U A126G, the self-cleavage was found to be 1.31.
The same measure for A63G A68G: 1.41.
In the case of A63G A68C it was 2.21.
The same measure for A64U A96C: 1.28; for A62C U87A: 1.54.
As for A60U U131C, the self-cleavage came out at 0.75.
In the case of A62G A114U it was 0.02; in that of A62U C85U, 1.31; in that of A63G U133C, 1.18.
A64G A78U: the self-cleavage was 0.4.
The same measure for A63U U70C: 1.68.
The same measure for A60U C113U: 0.27.
The same measure for A63G G99U: 1.14; for A60U G106A: 0.
As to A60U G106C, the self-cleavage amounted to 0.
On to A64U U100C, for which the self-cleavage amounted to 2.38.
In the case of A64U U100A it was 0.29; in that of A60U U127C, 0.92.
The same measure for A60U U127A: 2.36; for A62U A68G: 1.4; for A62U A111U: 0.07.
The same measure for A62U A64G: 1.46.
On to A62U A64U, for which the self-cleavage was found to be 1.06.
As for A64U A69G, the self-cleavage is 1.86.
In the case of A62U U87C it was 1.57; in that of A60U U120C, 0.7.
The same measure for A63G A91G: 0.98; for A62U G93A: 2.2; for A62G U103C: 0.98.
The same measure for A62G A78C: 0.37.
As for A62G A78U, the self-cleavage was 0.19.
In the case of A64G U127A it was 2.12; in that of A64G A140G, 1.47.
The same measure for A63U G99U: 1.03; for A64G C109U: 0.36.
The same measure for A62U U132A: 2.19; for A63G U139C: 1.1.
Turning to A63G G84A, the self-cleavage was 1.86.
As to A63G U124C, the self-cleavage worked out at 1.17.
As to A64G A118U, the self-cleavage is 0.97.
The same measure for A64G A118G: 0.89.
The same measure for A63U U97C: 1.05.
In the case of A62C U72C it was 0.26.
With A63G U103C, the self-cleavage was 1.38.
The same measure for A63G U103A: 0.88; for A63C A90G: 1.79; for A62G U132C: 1.59.
In the case of A62G U132G it was 0.5; in that of A63U A91U, 1.05; in that of A62G C101U, 0.41.
For the variant A64U A68G, the self-cleavage came to 2.16.
The same measure for A62G A91G: 1.12.
In the case of A64G C85U it was 0.98; in that of A63G A67U, 1.45.
The same measure for A63G A67G: 1.6; for A63G A114G: 0.86; for A63G A92G: 1.66.
A63G U122C: the self-cleavage amounted to 1.16.
As to A63G U122A, the self-cleavage is 1.47.
Take A63C C81U: the self-cleavage was determined as 0.41.
With A64G A66C, the self-cleavage stood at 1.17.
In the case of A63G A95G it was 2.26; in that of A64U A89G, 1.6; in that of A64G A67G, 1.27.
As for A60U G115A, the self-cleavage stood at 0.29.
For the variant C61U U120A, the self-cleavage was found to be 2.02.
As to A63G A66C, the self-cleavage was 0.27.
For A63G A66G, the self-cleavage came out at 1.7.
In the case of A64G G106U it was 0.02; in that of A64G A68G, 1.54.
A64G A98G: the self-cleavage was determined as 0.59.
The same measure for A62G A135U: 1.67; for A62G C109U: 0.53.
In the case of A62G U124C it was 0.94; in that of A62G U124G, 1.13; in that of A63G A116G, 1.17.
As to C61U A62G, the self-cleavage came out at 1.65.
On to A64G C105U, for which the self-cleavage worked out at 0.12.
In the case of A64G A117G it was 1.7; in that of A64G A91C, 1.76.
Take A64U A134G: the self-cleavage was determined as 1.44.
As for A62G U108A, the self-cleavage came to 0.01.
In the case of A64G A135G it was 1.7; in that of A64C A96G, 1.27.
The same measure for A64G C121G: 2.89; for A60U A68G: 1.79.
In the case of A60U U133C it was 2.17; in that of A60U U124C, 0.94; in that of C61U A98U, 2.63.
As for A62G C88G, the self-cleavage was determined as 1.14.
In the case of C61U A126G it was 0.55.
The same measure for A63G G79A: 0.11; for A64G U139C: 1; for A62U A90G: 1.26.
A63G G123A: the self-cleavage came to 2.17.
The same measure for A62G A94U: 2.08.
The same measure for A64U A98U: 1.98; for A64G A69U: 1.58.
In the case of A64G A69G it was 1.36; in that of A64G A111U, 0.1.
For A64G A111G, the self-cleavage was 0.05.
The same measure for A63G U87A: 2.02.
Regarding A63G U87C, the self-cleavage came out at 1.59.
The same measure for A63C U132C: 2.13.
The same measure for A63U A68G: 0.87.
With A64G U103A, the self-cleavage came out at 0.55.
In the case of A62U A86G it was 1.88; in that of A62C A78C, 0.31.
As to A63G A82G, the self-cleavage was found to be 0.74.
In the case of A63G A82U it was 0.24; in that of C61G, 1.24; in that of C61A, 1.82.
For the variant C61U, the self-cleavage worked out at 1.8.
In the case of A64G A116U it was 0.19; in that of A64U A117U, 1.07; in that of A63G U131G, 1.99.
Consider A64C U70C, for which the self-cleavage turned out to be 1.18.
The same measure for A62G C105A: 0.03.
In the case of A64G U120A it was 2.01; in that of A64G U120C, 1.13; in that of A64C A68G, 1.44.
For the variant A62G A110C, the self-cleavage turned out to be 0.34.
In the case of A63G U108C it was 0.02; in that of A63G U108G, 0.03; in that of A63G U108A, 0.01.
In the case of A64U U70C, the self-cleavage amounted to 1.06.
The same measure for A62C A94G: 1.61.
Consider A63G A94G, for which the self-cleavage was determined as 1.98.
The same measure for A63U A92G: 1.88.
The same measure for A64U A126U: 1.2; for A64G A95G: 1.12; for A64G A95U: 0.64.
The same measure for A60U C128U: 0.44; for A60U A114G: 0.58.
A63G A125G: the self-cleavage is 0.64.
A62G C76G: the self-cleavage turned out to be 0.06.
In the case of A62U A67G it was 1.19.
In the case of A62U A67C it was 1.64; in that of A64G U122C, 1.81.
In the case of A64G U122A it was 0.95.

The record behind these values is the RNAGym collection of RNA variant scans (doi:10.7554/elife.90254).
